Experimental data reported in US20240132578A1.

Assays:
[1] = target: JR-FL gp120 ΔV1/ΔV2 (HIV-1 JR-FL); experiment: ELISA, antigen-coated wells, mAb titrated; EC50 by nonlinear regression
[2] = target: HIV-1 envelope glycoprotein (Env) of isolate MGRM-AE-002, subtype AE (HIV-1); experiment: cell-based or functional assay
[3] = target: HIV-1 92TH021 envelope protein (Env) on pseudovirus (HIV-1); experiment: cell-based or functional assay
[4] = target: HIV-1 envelope glycoprotein (Env) of isolate MGRM-Chronic-B-018, on pseudovirus (HIV-1); experiment: cell-based or functional assay
[5] = target: HIV-1 envelope glycoprotein (Env) of isolate NL43, on pseudovirus (HIV-1); experiment: cell-based or functional assay
[6] = target: HIV-1 envelope glycoprotein (Env) of isolate MGRM-Chronic-B-001, on pseudovirus (HIV-1); experiment: cell-based or functional assay
[7] = target: HIV-1 Env of isolate MGRM-F1-021 (pseudovirus) (HIV-1); experiment: cell-based or functional assay
[8] = target: HIV-1 envelope glycoprotein (Env) of isolate 93WR029, subtype A (HIV-1); experiment: cell-based or functional assay
[9] = target: aMLV envelope; experiment: cell-based or functional assay
[10] = target: HIV-1 Env of isolate APV_6, clade B (HIV-1); experiment: cell-based or functional assay
[11] = target: HIV-1 envelope glycoprotein (Env) of isolate MGRM-C-004 (HIV-1); experiment: cell-based or functional assay
[12] = target: HIV-1 envelope glycoprotein (Env) of isolate LAVI_C3 (HIV-1); experiment: cell-based or functional assay
[13] = target: HIV-1 Env of isolate 92RW026 (clade A pseudovirus) (HIV-1); experiment: cell-based or functional assay
[14] = target: HIV-1 Env of isolate 92RW008 (clade A pseudovirus) (HIV-1); experiment: cell-based or functional assay
[15] = target: HIV-1 isolate 94UG114 envelope glycoprotein (Env), clade D, on pseudovirus (HIV-1); experiment: cell-based or functional assay
[16] = target: HIV-1 Env of isolate MGRM-D-012 (clade D pseudovirus) (HIV-1); experiment: cell-based or functional assay
[17] = target: HIV-1 Env of isolate MGRM-A-007 (clade A pseudovirus) (HIV-1); experiment: cell-based or functional assay
[18] = target: HIV-1 Env of pseudovirus MGRM-F1-016 (clade F) (HIV-1); experiment: cell-based or functional assay
[19] = target: aMLV envelope on pseudovirus (negative control); experiment: cell-based or functional assay
[20] = target: HIV-1 94UG103 envelope (Env) on pseudovirus (HIV-1); experiment: cell-based or functional assay
[21] = target: HIV-1 MGRM-G-001 Env (pseudovirus) (HIV-1); experiment: cell-based or functional assay
[22] = target: HIV-1 Env of isolate MGRM-D-001 (clade D pseudovirus) (HIV-1); experiment: cell-based or functional assay
[23] = target: HIV-1 CMU02 envelope (Env) on pseudovirus (HIV-1); experiment: cell-based or functional assay
[24] = target: HIV-1 Env of isolate JRCSF (Clade B) (HIV-1) (UniProt P20871); experiment: cell-based or functional assay
[25] = target: HIV-1 Env of isolate MGRM-D-022 (pseudovirus) (HIV-1); experiment: cell-based or functional assay
[26] = target: HIV-1 Env of isolate MGRM-F1-006 (HIV-1); experiment: cell-based or functional assay
[27] = target: HIV-1 Env of isolate 92UG024 (pseudovirus) (HIV-1); experiment: cell-based or functional assay
[28] = target: HIV-1 Env of isolate MGRM-AG-003 (subtype AG) (HIV-1); experiment: cell-based or functional assay
[29] = target: HIV-1 Env of pseudovirus isolate MGRM-C-012 (clade C) (HIV-1); experiment: cell-based or functional assay
[30] = target: HIV-1 Env of isolate MGRM-AE-002 (subtype AE) (HIV-1); experiment: cell-based or functional assay
[31] = target: HIV-1 Env of isolate MGRM-AG-009 (subtype AG) (HIV-1); experiment: cell-based or functional assay
[32] = target: HIV-1 Env of pseudovirus isolate MGRM-C-014 (clade C) (HIV-1); experiment: cell-based or functional assay
[33] = target: HIV-1 Env of isolate MGRM-Chronic-B-003 (HIV-1); experiment: cell-based or functional assay
[34] = target: HIV-1 Env of isolate MGRM-AE-006 (subtype AE) (HIV-1); experiment: cell-based or functional assay
[35] = target: HIV-1 Env of isolate MGRM-AG-008 (pseudovirus) (HIV-1); experiment: cell-based or functional assay

Row | Substance | EC50 [1] | IC50, pseudovirus neutralization [2] | IC50 (ug/mL), pseudovirus neutralization [3] | IC50, pseudovirus neutralization [4] | IC50, pseudovirus neutralization [5] | IC50, pseudovirus neutralization [6] | IC50 (µg/mL), pseudovirus neutralization [7] | IC50, pseudovirus neutralization [8] | IC50, pseudovirus neutralization [9] | IC50 (µg/ml), pseudovirus neutralization [10] | IC50 (µg/ml), pseudovirus neutralization [11] | IC50 (µg/ml), pseudovirus neutralization [12] | IC50 (µg/ml), pseudovirus neutralization [13] | IC50 (µg/ml), pseudovirus neutralization [14] | IC50 (µg/ml), pseudovirus neutralization [15] | IC50, pseudovirus neutralization [16] | IC50 (µg/ml), pseudovirus neutralization [17] | IC50 [18] | neutralization IC50 [19] | neutralization IC50 [20] | further results
1 | 4838_L06 (PGT-121) (antibody) | 0.2 µg/mL | > 50 µg/mL | > 10 µg/mL | > 50 µg/mL | > 50 µg/mL | 0.102 µg/mL | 0.099 µg/mL | > 50 µg/mL | > 10 µg/mL | – | – | – | – | – | – | – | – | – | – | – | –
2 | 1495_C14 (PGC14) (antibody) | – | – | – | – | – | – | – | – | – | 23 µg/mL | > 50 µg/mL | 12 µg/mL | > 50 µg/mL | 37 µg/mL | > 50 µg/mL | > 50 µg/mL | > 50 µg/mL | > 50 µg/mL | > 50 µg/mL | > 50 µg/mL | IC50 (µg/ml), pseudovirus neutralization [21]: > 50 µg/mL; IC50, pseudovirus neutralization [22]: > 50 µg/mL; neutralization IC50 [23]: > 50 µg/mL
3 | 2F5 (antibody) | – | – | – | – | – | – | – | – | – | 0.25 µg/mL | > 50 µg/mL | > 50 µg/mL | 8.63 µg/mL | 10.4 µg/mL | > 50 µg/mL | 1.7 µg/mL | 16.3 µg/mL | 21.5 µg/mL | > 50 µg/mL | 3.79 µg/mL | IC90 (neutralization of pseudovirus) [24]: 25.3 µg/mL; IC50 (µg/ml), pseudovirus neutralization [21]: 4.1 µg/mL; IC50, pseudovirus neutralization [22]: 0.63 µg/mL; neutralization IC50 [23]: 0.38 µg/mL
4 | 5136_H01 (PGT-131) (antibody) | – | – | – | – | – | – | – | – | – | – | – | – | – | – | – | – | – | – | – | – | IC50 (µg/mL), pseudovirus neutralization [25]: > 50 µg/mL; IC50 (µg/mL), pseudovirus neutralization [26]: > 50 µg/mL; IC50 (µg/mL), pseudovirus neutralization [27]: > 50 µg/mL; IC50, pseudovirus neutralization [28]: 2.92 µg/mL; IC50, pseudovirus neutralization [29]: > 50 µg/mL; IC50, pseudovirus neutralization [30]: > 50 µg/mL; IC50, pseudovirus neutralization [31]: > 50 µg/mL; IC50, pseudovirus neutralization [32]: > 50 µg/mL; IC50 (µg/mL), pseudovirus neutralization [33]: > 50 µg/mL; IC50, pseudovirus neutralization [34]: 0.026 µg/mL
5 | b12 (antibody) | – | – | – | – | – | – | – | – | – | > 50 µg/mL | 5.46 µg/mL | 0.94 µg/mL | > 50 µg/mL | 9.46 µg/mL | > 50 µg/mL | 0.13 µg/mL | > 50 µg/mL | > 50 µg/mL | > 50 µg/mL | 3.54 µg/mL | IC90 (neutralization of pseudovirus) [24]: 1.17 µg/mL; IC50 (µg/ml), pseudovirus neutralization [21]: > 50 µg/mL; IC50, pseudovirus neutralization [22]: > 50 µg/mL; neutralization IC50 [23]: 4.25 µg/mL
6 | 5141_B17 (PGT-126) (antibody) | 0.3 µg/mL | > 50 µg/mL | 0.115 µg/mL | 0.052 µg/mL | > 50 µg/mL | > 50 µg/mL | > 50 µg/mL | > 50 µg/mL | > 10 µg/mL | – | – | – | – | – | – | – | – | – | – | – | IC50 (µg/mL), pseudovirus neutralization [35]: > 50 µg/mL
7 | 4877_D15 (PGT-122) (antibody) | 0.3 µg/mL | > 50 µg/mL | > 10 µg/mL | > 50 µg/mL | > 50 µg/mL | 0.138 µg/mL | 2.3 µg/mL | > 50 µg/mL | > 10 µg/mL | – | – | – | – | – | – | – | – | – | – | – | IC50 (µg/mL), pseudovirus neutralization [35]: > 50 µg/mL
